T1: Recombinant mouse VEGFR1-Fc (R&D Systems) (mouse, UniProt P35969 27-759, limits assumed)
T1 construct: bought; not shown: Fc part of the bought fusion, not described
T1 sequence (looked up): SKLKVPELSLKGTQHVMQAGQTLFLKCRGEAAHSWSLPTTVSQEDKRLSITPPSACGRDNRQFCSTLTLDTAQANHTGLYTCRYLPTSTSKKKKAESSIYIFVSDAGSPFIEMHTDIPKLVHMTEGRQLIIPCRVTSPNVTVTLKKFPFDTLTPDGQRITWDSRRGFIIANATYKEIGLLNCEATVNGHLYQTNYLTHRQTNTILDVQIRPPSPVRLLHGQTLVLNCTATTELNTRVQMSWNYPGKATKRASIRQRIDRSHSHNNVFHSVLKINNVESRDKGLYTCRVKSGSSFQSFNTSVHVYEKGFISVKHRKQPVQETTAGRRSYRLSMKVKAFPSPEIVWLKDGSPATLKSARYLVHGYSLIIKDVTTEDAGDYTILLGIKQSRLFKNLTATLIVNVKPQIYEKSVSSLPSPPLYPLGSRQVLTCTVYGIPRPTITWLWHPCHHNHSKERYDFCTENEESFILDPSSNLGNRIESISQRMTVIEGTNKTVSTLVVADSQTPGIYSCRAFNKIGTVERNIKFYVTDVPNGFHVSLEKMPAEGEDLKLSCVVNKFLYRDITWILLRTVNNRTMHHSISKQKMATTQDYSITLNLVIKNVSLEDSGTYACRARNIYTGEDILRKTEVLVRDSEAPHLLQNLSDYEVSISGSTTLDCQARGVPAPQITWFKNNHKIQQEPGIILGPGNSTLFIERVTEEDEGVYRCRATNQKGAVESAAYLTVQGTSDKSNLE

B1: VGFB82 (antibody, human IgG1, lambda, L234A L235A, V domains shown)
VH: EVQLLESGGGLVQPGGSLRLSCEASGFDFSTYAMNWVRQAPGKGLEWVATINSEGTITSHAPAVKGRFTISRDNSKNTAYVQMNSLRAEDSAVYYCSSTTGTTHGMDVWGRGTTVTVSS
VL: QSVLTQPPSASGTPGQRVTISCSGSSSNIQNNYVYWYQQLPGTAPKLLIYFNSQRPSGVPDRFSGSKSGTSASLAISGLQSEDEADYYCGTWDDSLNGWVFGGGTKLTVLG
notes: human IgG1 (L234A/L235A/D265S)
B2: VGFB78 (antibody, human IgG1, lambda, L234A L235A, V domains shown)
VH: EVQLLESGGGLVQPGGSLRLSCAASSFTFYNYDMTWVRQAPGKGLEWVAGIGTSGTDMYYADSVKGRFTISRDNSKNTLYLQMNSLRAEDTAIYYCAKDYYYYGMDVWGLGTTVTVSS
VL: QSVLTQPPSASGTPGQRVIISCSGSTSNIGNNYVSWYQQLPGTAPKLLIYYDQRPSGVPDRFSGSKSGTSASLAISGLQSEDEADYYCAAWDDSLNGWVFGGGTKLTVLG
notes: as for B1
B3: VGFB54 (antibody, human IgG1, lambda, L234A L235A, V domains shown)
VH: EVQLLESGGGSVQPGGSLRLSCTASGFNFEDYGMNWVRQAPGKGLDWVSSINRNGDISTYHVDSVKGRFTISRDNSKNTLYLQMNSLRAEDTAIYYCTKNHDYHGMDVWGQGTTVTVSS
VL: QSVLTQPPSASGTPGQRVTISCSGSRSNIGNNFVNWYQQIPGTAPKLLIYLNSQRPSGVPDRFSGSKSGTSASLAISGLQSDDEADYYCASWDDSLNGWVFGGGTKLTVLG
notes: human IgG1 (L234A/L235A/D265S), lambda, 2H:2L; from OmniChicken
B4: VGFB71 (antibody, human IgG1, lambda, L234A L235A, V domains shown)
VH: EVQLLESGGGLVQPGGSLRLSCEASGFIFRDYNMNWVRQAPGKGLEWVSIITNDGSSTAYSDSVKGRFTISRDNSKNSLYLQMNSLRAEDTAIYYCVKVYYGMDDWGQGTTVTVSS
VL: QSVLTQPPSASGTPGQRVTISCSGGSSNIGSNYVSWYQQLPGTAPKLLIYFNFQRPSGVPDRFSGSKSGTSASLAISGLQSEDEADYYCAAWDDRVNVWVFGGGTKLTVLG
notes: as for B1

Legend:
[1] = target: T2, human VEGFR3, over-expressed on K562 cells (human, UniProt P35916 25-1363); assay: FACS cell binding (MFI) on K562 cells over-expressing human VEGFR3; expanded clone supernatant per paragraph 492, concentration not given
T2 construct: whole, on cells; also called huVEGFR3; hVEGFR3
In short: (§1)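 Flow cytometry was used to measure binding of culture supernatants to HEK cells over-expressing mouse VEGFR1 or human VEGFR2 and to K562 cells over-expressing human VEGFR3. The supernatants came from chicken-derived clones expressed as scFv-Fc (human IgG1) by transient transfection and expanded to 6-well plates (2 mL). Binding is reported as mean fluorescence intensity.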

[2] = target: T1, Recombinant mouse VEGFR1-Fc (R&D …); assay: MSD ECL competition on plate-bound mouse VEGFR1-Fc; competitor biotin mouse VEGFA164 (0.2 nM)
In short: (§2)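 MSD 384 plates were coated with Protein A/G or anti-His mAb, blocked with Blocker A, and used to capture human or mouse VEGFR1-Fc or His-tagged cyno VEGFR1 at 0.5 ug/ml for 1 hour at room temperature. Antibody in half-log dilutions was pre-incubated for 30 minutes, after which biotinylated VEGFA (0.2 nM) or PlGF (2 nM) was added. Bound ligand was detected with Sulfo-tagged streptavidin on an MSD SECTOR S 600 imager, and IC50 and maximal percent inhibition were derived from the electro-chemiluminescence signal.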

[3] = target: His tagged cyno VEGFR1 (cynomolgus monkey, UniProt A0A2K5VAF2 27-758); assay: MSD ECL competition on plate-bound His-tagged cyno VEGFR1; competitor biotin human VEGFA165 (0.2 nM)
In short: as §2

[4] = target: T3, VGFW1 (human, UniProt P17948 27-338, limits assumed); assay: HDX-MS
T3 construct: construct of the HDX-MS work; also called VEGFR1 (VGFW1)
In short: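 Hydrogen-deuterium exchange mass spectrometry mapped antibody binding on a recombinant VEGFR1 antigen. The read-out is the change in free energy per segment upon antibody binding. Segments above 2 kcal/mol count as strong epitopes and segments at 1-2 kcal/mol as weak ones.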

[5] = target: T4, Recombinant human VEGFR1-Fc (R&D Systems) (human, UniProt P17948 27-687, limits assumed); assay: MSD ECL competition on plate-bound human VEGFR1-Fc; competitor biotin human VEGFA165 (0.2 nM)
T4 construct: bought; not shown: Fc part of the bought fusion, not described
In short: as §2

[6] = target: T1, Recombinant mouse VEGFR1-Fc (R&D …); assay: MSD ECL competition on plate-bound mouse VEGFR1-Fc; competitor biotin PlGF (2 nM)
In short: as §2

[7] = target: T5, human VEGFR1, full length, over-expressed on cells (human, UniProt P17948 27-1338); assay: flow cytometry, CHOK1 cells over-expressing human VEGFR1; competitor biotinylated VEGF A (500 pM)
T5 construct: on CHO-K1 or HEK cells; also called hVEGFR1; CHOK1/ human VEGFR1
Method: Ligand blocking on cells was determined as follows: Cell Trace Violet CSFE (ThermoFisher Scientific) stained cells were plated at 15,000 cells per well (30 μL/well; CHO parental or CHO cells engineered to over-express human VEGFR1) in FACS staining buffer. An equivalent volume of serially diluted test antibody was applied to the cells and incubated for one hour at 4° C. Cells were washed twice with 200 μL/well of stain buffer followed by the addition of 100 μL/well of biotinylated VEGF A ligand (500 pM). The cells were incubated at 4° C. for another hour followed by the addition of 50 µL/well of AF647-conjugated streptavidin (3 nM). The plate was incubated at 4° C. for 30 min protected from light, washed twice with 200 μL/well of stain buffer, collected by centrifugation, resuspended in running buffer containing Sytox Blue live/dead stain and then read on an Intellicyt iQue Plus flow cytometer. Data was fit to obtain IC₅₀ values. Percent ligand blocking was calculated for each concentration of each test antibody and IC50 values were determined (Table 25).

[8] = target: T2, human VEGFR3, over-expressed on K562 …; assay: flow cytometry, 10 nM antibody, K562 cells over-expressing human VEGFR3
[9] = target: T6, human VEGFR2, over-expressed on HEK293 cells (human, UniProt P35968 20-1356); assay: FACS cell binding (MFI) on HEK cells over-expressing human VEGFR2; expanded clone supernatant per paragraph 492, concentration not given
T6 construct: whole, on cells; also called huVEGFR2; hVEGFR2
In short: as §1

[10] = target: T6, human VEGFR2, over-expressed on HEK293 …; assay: flow cytometry, 10 nM antibody, HEK cells over-expressing human VEGFR2

T6 sequence (P35968 20-1356): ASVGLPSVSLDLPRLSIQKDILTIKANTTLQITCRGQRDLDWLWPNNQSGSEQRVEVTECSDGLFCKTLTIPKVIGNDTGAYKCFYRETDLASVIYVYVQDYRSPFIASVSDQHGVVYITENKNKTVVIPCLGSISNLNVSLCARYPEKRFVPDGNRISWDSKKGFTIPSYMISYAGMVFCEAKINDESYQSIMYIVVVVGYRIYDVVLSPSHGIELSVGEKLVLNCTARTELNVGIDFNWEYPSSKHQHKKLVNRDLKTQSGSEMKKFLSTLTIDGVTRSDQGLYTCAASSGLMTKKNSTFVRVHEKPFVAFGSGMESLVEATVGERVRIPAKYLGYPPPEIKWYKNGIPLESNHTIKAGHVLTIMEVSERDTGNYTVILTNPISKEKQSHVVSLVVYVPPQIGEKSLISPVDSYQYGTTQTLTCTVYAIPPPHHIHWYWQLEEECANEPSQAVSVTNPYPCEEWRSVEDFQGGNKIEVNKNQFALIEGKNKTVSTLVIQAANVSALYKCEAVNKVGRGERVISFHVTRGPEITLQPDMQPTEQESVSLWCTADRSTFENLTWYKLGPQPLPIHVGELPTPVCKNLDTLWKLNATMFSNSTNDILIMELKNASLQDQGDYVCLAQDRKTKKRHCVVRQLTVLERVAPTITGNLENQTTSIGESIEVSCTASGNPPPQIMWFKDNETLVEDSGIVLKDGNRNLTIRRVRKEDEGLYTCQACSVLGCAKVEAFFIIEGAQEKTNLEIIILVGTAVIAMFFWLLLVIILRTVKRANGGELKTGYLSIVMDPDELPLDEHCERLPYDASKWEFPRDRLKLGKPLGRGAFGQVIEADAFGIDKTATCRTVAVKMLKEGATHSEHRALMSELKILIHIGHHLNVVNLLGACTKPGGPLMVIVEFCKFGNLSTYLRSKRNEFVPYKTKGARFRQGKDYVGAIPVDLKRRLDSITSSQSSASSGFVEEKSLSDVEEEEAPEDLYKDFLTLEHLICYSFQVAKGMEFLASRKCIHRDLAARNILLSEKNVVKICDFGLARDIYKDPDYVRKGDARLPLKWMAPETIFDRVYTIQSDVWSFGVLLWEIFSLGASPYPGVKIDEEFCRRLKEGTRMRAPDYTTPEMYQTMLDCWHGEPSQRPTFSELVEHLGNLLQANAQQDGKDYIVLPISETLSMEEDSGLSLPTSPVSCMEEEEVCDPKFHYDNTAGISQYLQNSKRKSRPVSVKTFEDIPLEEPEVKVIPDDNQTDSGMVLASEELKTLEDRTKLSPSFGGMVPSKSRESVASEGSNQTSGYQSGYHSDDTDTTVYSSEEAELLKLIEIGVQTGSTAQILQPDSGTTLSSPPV
T3 sequence (P17948 27-338 limits assumed): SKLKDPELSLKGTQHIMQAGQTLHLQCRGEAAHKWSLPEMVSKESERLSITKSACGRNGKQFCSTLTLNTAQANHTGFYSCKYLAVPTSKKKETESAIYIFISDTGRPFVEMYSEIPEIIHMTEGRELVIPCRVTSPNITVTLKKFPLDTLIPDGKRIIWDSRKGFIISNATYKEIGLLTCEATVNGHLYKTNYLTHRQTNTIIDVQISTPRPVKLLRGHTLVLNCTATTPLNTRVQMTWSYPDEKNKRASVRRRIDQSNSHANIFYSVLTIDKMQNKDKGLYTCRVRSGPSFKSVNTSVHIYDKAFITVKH
T4 sequence (P17948 27-687 limits assumed): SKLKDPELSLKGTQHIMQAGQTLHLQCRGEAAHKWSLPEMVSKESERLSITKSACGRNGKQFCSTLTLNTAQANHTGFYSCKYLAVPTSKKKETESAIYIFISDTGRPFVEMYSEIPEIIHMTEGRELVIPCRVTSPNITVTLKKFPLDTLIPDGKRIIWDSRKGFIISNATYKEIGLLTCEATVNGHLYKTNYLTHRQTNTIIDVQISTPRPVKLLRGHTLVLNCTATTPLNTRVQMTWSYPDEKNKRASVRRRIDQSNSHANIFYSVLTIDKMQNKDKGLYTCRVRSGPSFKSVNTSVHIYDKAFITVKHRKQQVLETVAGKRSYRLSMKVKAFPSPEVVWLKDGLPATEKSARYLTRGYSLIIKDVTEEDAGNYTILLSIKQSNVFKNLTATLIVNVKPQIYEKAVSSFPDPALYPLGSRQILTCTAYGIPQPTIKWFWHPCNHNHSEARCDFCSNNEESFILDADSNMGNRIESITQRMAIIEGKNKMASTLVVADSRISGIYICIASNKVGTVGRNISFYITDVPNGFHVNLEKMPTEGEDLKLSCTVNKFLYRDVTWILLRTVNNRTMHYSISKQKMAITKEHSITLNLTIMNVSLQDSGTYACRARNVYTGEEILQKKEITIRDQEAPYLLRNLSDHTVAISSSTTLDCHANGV
T2 sequence (P35916 25-1363): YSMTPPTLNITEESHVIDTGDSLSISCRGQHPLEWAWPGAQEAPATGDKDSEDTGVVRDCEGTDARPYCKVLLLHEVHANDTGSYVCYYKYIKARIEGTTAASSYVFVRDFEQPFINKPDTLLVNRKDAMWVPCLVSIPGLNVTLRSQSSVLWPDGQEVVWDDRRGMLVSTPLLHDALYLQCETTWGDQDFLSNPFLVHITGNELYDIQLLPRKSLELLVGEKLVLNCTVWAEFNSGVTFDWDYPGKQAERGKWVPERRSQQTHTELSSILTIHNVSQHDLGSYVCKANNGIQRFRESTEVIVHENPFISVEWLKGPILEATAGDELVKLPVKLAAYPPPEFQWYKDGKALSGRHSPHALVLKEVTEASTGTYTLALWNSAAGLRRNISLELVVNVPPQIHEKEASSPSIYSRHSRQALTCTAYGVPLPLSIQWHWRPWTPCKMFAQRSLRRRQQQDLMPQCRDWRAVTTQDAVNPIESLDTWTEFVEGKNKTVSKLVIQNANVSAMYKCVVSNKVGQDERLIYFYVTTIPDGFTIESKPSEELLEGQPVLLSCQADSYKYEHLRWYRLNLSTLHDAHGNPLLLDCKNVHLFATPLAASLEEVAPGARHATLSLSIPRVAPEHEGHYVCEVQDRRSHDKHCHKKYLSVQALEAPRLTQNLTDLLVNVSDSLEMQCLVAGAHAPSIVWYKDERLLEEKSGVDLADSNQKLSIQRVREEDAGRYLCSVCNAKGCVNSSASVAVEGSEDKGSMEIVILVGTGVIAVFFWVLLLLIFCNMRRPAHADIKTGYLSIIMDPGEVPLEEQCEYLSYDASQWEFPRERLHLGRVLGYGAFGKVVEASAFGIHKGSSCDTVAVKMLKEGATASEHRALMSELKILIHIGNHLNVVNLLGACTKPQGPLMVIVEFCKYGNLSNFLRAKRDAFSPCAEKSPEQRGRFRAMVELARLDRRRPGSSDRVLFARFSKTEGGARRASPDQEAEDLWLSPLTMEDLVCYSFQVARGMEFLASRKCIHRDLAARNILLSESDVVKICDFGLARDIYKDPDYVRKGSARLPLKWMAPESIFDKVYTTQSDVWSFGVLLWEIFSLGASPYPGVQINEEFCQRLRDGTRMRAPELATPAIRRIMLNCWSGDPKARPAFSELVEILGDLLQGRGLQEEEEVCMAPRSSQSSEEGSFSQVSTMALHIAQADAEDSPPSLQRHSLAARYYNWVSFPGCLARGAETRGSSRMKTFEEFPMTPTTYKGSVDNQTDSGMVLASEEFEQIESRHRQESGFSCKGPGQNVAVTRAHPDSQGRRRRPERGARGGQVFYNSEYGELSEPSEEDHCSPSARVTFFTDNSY

| Binder | binding result [1] | IC50 [2] [pM] | Max % Inh. [2] [%] | IC50 [3] [pM] | Max % Inh. [3] [%] | Free energy change upon binding (ΔΔG), VEGFR1 segment 141-147 [4] [kcal/mol] | Free energy change upon binding (ΔΔG), VEGFR1 segment 147-153 [4] [kcal/mol] | Free energy change upon binding (ΔΔG), VEGFR1 segment 172-177 [4] [kcal/mol] | Free energy change upon binding (ΔΔG), VEGFR1 segment 178-199 [4] [kcal/mol] | Free energy change upon binding (ΔΔG), VEGFR1 segment 200-200 [4] [kcal/mol] | Free energy change upon binding (ΔΔG), VEGFR1 segment 201-204 [4] [kcal/mol] | Free energy change upon binding (ΔΔG), VEGFR1 segment 211-215 [4] [kcal/mol] | Free energy change upon binding (ΔΔG), VEGFR1 segment 218-228 [4] [kcal/mol] | IC50 [5] [pM] | Max % Inh. [5] [%] | IC50 [6] [pM] | Max % Inh. [6] [%] | IC50 [7] [pM] | Geomean over-expressing/Geomean parental (Fold Signal/Background) [8] [fold] | Geomean over-expressing/Geomean parental (Fold Signal/Background) [10] [fold] | further results |
| --- | --- | --- | --- | --- | --- | --- | --- | --- | --- | --- | --- | --- | --- | --- | --- | --- | --- | --- | --- | --- | --- |
| B1 | no binding | 40 | 99.8 | 81 | 99 | -0.6 | -0.1 | -0.6 | -1 | -0.5 | -3.3 | -0.1 | -0.3 | 152 | 99.9 | 221 | 100 | 198 | 1.01 | 1.34 | binding result [9]: no binding |
| B2 | no binding | 183 | 101 | 134 | 98.6 | -0.3 | -0.6 | -2.7 | -1.1 | -2.9 | -3.6 | 0.1 | -0.2 | 252 | 99.9 | 243 | 100 | 683 | 0.99 | 1.75 | binding result [9]: no binding |
| B3 | no binding | 26 | 100 | 89 | 98.6 | -0.2 | -0.4 | -2.6 | -0.3 | -1.4 | -3.6 | -0.1 | -0.7 | 141 | 99.9 | 240 | 98.4 | 72.7 | 0.97 | 1.52 | binding result [9]: no binding |
| B4 | no binding |  |  |  |  | -0.3 | -1.2 | -4.2 | 0 | -2.8 | -2.8 | -0.1 | -0.3 |  |  |  |  | 79.5 | 0.98 | 1.27 |  |

From patent US20240425603A1 (Janssen / Centocor, published 2024)
